In patent US11591580B2, “K85 mutation-containing plant EPSPS mutant, and encoding gene and application thereof” (GEVOTO LLC, priority 2017, dated 2023):

Assays:
[1] = system: transgenic rice seedlings; experiment: glyphosate resistance of the EPSPS mutant in transgenic rice plants sprayed with glyphosate (Example 8, Table 1); assay type: in vivo, rice (Nipponbare)
Source text: A method for detecting the glyphosate resistance of the G1 soybean EPSPS mutant (SEQ ID NO: 20), G2 soybean EPSPS mutant (SEQ ID NO: 22) and G3 soybean EPSPS mutant (SEQ ID NO: 24) provided in Example 7, the R1 rice EPSPS mutant (SEQ ID NO: 4) provided in Example 5, and the Z1 maize EPSPS mutant (SEQ ID NO: 12) provided in Example 6 in the transgenic rice is as follows:
The plasmids (containing the EPSPS mutant gene) of the monoclonal resistant bacteria of pADV5-EPSPS in Examples 1-7 were extracted by a conventional method, followed by double enzyme digestion by Pac1 and BstEII, the small fragments were collected, and then the small fragments were ligated, using T4 DNA ligase, to the pGVP1 vectors that had undergone the same double enzyme digestion, to obtain a pGVP1-EPSPS vector having a structure as shown in FIG. 8.
In the present example, the glyphosate resistance of the EPSPS mutant in transgenic rice plants were verified. An experiment method is as follows:
The transgenic rice seedlings transplanted were uniformly arranged in a same experiment area (preventing leaves from overlapping). The areas occupied by the experiment groups and the control group were calculated, and according to the areas, glyphosate was sprayed at a 1× dosage of 1060 g/hectare (0.106 g/m^2). 2× dosage was 2120 g/hectare, 5× dosage was 5300 g/hectare, and 20× dosage was 21200 g/hectare.
Commercially available Roundup® 41% ammonium glyphosate was used. Roundup® ammonium glyphosate with corresponding volumes was taken according to the above sprayed concentrations, then diluted with 20 times of volume of water, and then uniformly sprayed on the plants in the experiment groups and the control group. After leaf surfaces were dry, the plants were moved into greenhouse or outdoor to cultivate.
After the glyphosate was sprayed at the 1× dosage, growth states of the plants in each group were observed and recorded on a 10th day, and glyphosate was sprayed to the survived plants at the 2× dosage. The growth states of the plants in each group were observed and recorded 10 days later, and glyphosate was sprayed to the survived plants at the 5× dosage. The growth states of the plants in each group were observed and recorded 10 days later, and glyphosate was sprayed to the survived plants at the 20× dosage. The growth states of the plants in each group were observed and recorded 10 days later, and results are shown in Table 1, wherein corresponding numbers of plants denoted by −, +, ++ and +++ are listed, and “%++&+++” is percentage of plant having medium and high glyphosate resistance to the total number of plants observed.

[2] = system: EPSPS defective E. coli (E. coli DH5α with EPSPS gene and C-P Lyase gene being knocked out, EDCE); experiment: growth of E. coli transformed by genes encoding rice EPSPS (wild type and mutants) in culture media containing different glyphosate concentrations (Example 5, FIG. 1); assay type: cell-based
Source text: E. coli transformed by the gene (SEQ ID NO: 3) encoding the rice EPSPS mutant I provided in Example 1 was taken as Experiment Group 1 (only containing a mutation K100(85)I).
E. coli transformed by the gene (with a nucleotide sequence represented by SEQ ID NO: 5, and an amino acid sequence of the encoded rice EPSPS mutant is represented by SEQ ID NO: 6) encoding the rice EPSPS mutant that contains only mutations G111(96)A and P116(101)S but no mutation K100(85)I was taken as Experiment Group 2.
E. coli transformed by the gene (SEQ ID NO: 7) encoding the rice EPSPS mutant II provided in Example 2 was taken as Experiment Group 3 (the encoded rice EPSPS mutant II contained three mutations: K100(85)I, G111(96)A and P116(101)S).
E. coli transformed by the gene (SEQ ID NO: 1, which encoded the wild-type rice EPSPS represented by SEQ ID NO: 2) encoding the wild-type rice EPSPS was taken as a control group.
The glyphosate resistance of the gene encoding the rice EPSPS mutant I and the rice EPSPS mutant I encoded thereby in E. coli, and the glyphosate resistance of the gene encoding the rice EPSPS mutant II and the rice EPSPS mutant II encoded thereby in E. coli were verified by detecting the growth situation of the transformed E. coli in culture media (culture media obtained by adding a certain concentration of antibiotics Spec (Spectinomycin), Gen (Gentamycin), Amp (Ampicillin) and glyphosate of different concentrations, with M9 as a basal culture medium) containing different glyphosate concentrations (0 mM, 1 mM, 10 mM, and 50 mM).
In the above, the E. coli used was double knockout E. coli, namely, EPSPS defective E. coli (E. coli DH5α with EPSPS gene and C-P Lyase gene being knocked out, named as EDCE, wherein for a preparation method thereof, reference can be made to a Chinese invention patent with the filing number CN2016103256926).
The detection method is a method commonly known in the art, and is briefly described as follows: synthesizing the gene encoding the rice EPSPS mutant by using a chemical synthesis method, introducing enzyme sites (Pac1 and Sbf1) at two ends thereof, connecting to an expression vector (for example, a pADV5 vector, the structure of which is shown in FIG. 4) that had undergone the same restriction enzyme digestion treatment under the action of ligase after restriction enzyme digestion, then transforming double knockout E. coli, picking positive colonies after verification, inoculating the positive colonies to a culture medium containing glyphosate for growth, and observing the growth situation.
Results are as shown in FIG. 1 (wherein R0 is a control group, R1 is Experiment Group 1, R2 is Experiment Group 2, and R3 is Experiment Group 3).

[3] = 1X dosage (1060 g/hectare glyphosate), recorded on 10th day
[4] = 2X dosage (2120 g/hectare) sprayed to plants surviving 1X, recorded 10 days later
[5] = 5X dosage (5300 g/hectare) sprayed to plants surviving 2X, recorded 10 days later
[6] = 20X dosage (21200 g/hectare) sprayed to plants surviving 5X, recorded 10 days later

B1: R0: wild-type rice EPSPS represented by SEQ ID NO: 2; control group of Example 5 (protein, listed as Oryza sativa)
chain: MASNAAAAAAKAEEIVLQPIREISGAVQLPGSKSLSNRILLLSALSEGTTVVDNLLNSEDVHYMLEALKALGLSVEADKVAKRAVVVGCGGKFPVEKDAKEEVQLFLGNAGTAMRPLTAAVTAAGGNATYVLDGVPRMRERPIGDLVVGLKQLGADVDCFLGTECPPVRVKGIGGLPGGKVKLSGSISSQYLSALLMAAPLALGDVEIEIIDKLISIPYVEMTLRLMERFGVKAEHSDSWDRFYIKGGQKYKSPGNAYVEGDASSASYFLAGAAITGGTVTVQGCGTTSLQGDVKFAEVLEMMGAKVTWTDTSVTVTGPPREPYGKKHLKAVDVNMNKMPDVAMTLAVVALFADGPTAIRDVASWRVKETERMVAIRTELTKLGASVEEGPDYCIITPPEKLNITAIDTYDDHRMAMAFSLAACADVPVTIRDPGCTRKTFPNYFDVLSTFVRN
% ++&+++ (percentage of plant having medium and high glyphosate resistance to the total number of plants observed) [1, 3]: 0.0%
number of plants with resistance + (low glyphosate resistance) [1, 3]: 1
number of plants with resistance ++ (medium glyphosate resistance) [1, 3]: 0
number of plants with resistance +++ (high glyphosate resistance) [1, 3]: 0
number of plants with resistance − (no glyphosate resistance) [1, 3]: 30
% ++&+++ (percentage of plant having medium and high glyphosate resistance to the total number of plants observed) [1, 4]: 0.0%
number of plants with resistance + (low glyphosate resistance) [1, 4]: 0
number of plants with resistance ++ (medium glyphosate resistance) [1, 4]: 0
number of plants with resistance +++ (high glyphosate resistance) [1, 4]: 0
number of plants with resistance − (no glyphosate resistance) [1, 4]: 31
% ++&+++ (percentage of plant having medium and high glyphosate resistance to the total number of plants observed) [1, 5]: 0.0%
number of plants with resistance + (low glyphosate resistance) [1, 5]: 0
number of plants with resistance ++ (medium glyphosate resistance) [1, 5]: 0
number of plants with resistance +++ (high glyphosate resistance) [1, 5]: 0
number of plants with resistance − (no glyphosate resistance) [1, 5]: 31
% ++&+++ (percentage of plant having medium and high glyphosate resistance to the total number of plants observed) [1, 6]: 0.0%
number of plants with resistance + (low glyphosate resistance) [1, 6]: 0
number of plants with resistance ++ (medium glyphosate resistance) [1, 6]: 0
number of plants with resistance +++ (high glyphosate resistance) [1, 6]: 0
number of plants with resistance − (no glyphosate resistance) [1, 6]: 31
glyphosate resistance of transformed rice seedlings (in words) ([1]; glyphosate sprayed at the 1× dosage): had no resistance, one was seriously damaged, and all the others died
EPSPS enzyme activity ([2]; concluded from growth of EPSPS defective E. coli at 0 mM glyphosate): normal EPSPS enzyme activity
growth of transformed E. coli ([2]; culture media containing 1 mM glyphosate): grew slowly
